Measured values published in patent publication US20240425837A1 (Novo Nordisk, published 2024).

Biological target: human plasma-derived coagulation Factor X (FX) (human) (UniProt P00742)
Test: cell-based or functional assay

Chain of human plasma-derived coagulation Factor X (FX) (human) (P00742 41-179, chain 1 of 2): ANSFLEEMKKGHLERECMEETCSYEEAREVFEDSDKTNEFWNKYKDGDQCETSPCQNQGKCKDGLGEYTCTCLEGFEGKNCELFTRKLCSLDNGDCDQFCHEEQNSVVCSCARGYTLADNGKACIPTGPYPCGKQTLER
Chain of human plasma-derived coagulation Factor X (FX) (human) (P00742 183-488, chain 2 of 2): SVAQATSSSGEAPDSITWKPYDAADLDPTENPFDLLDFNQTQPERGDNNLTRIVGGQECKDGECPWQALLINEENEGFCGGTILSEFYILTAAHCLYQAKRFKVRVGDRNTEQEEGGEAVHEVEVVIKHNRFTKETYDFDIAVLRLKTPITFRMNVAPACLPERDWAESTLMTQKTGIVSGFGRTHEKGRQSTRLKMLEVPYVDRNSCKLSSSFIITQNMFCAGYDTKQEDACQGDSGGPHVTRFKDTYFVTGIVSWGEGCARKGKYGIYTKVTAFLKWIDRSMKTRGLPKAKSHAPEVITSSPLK

KM of FX activation by 0.1 nM FIXa with phospholipid vesicles, antibody at 300 nM: 0.0535 µM
Substance: Emicizumab sequence identical analogue (SIA) (bispecific antibody)
